Results published in publication PMC2173848 (The Journal of Cell Biology, 2002).

Target: T1, GST-Sec34p (S. cerevisiae, UniProt P40094 1-801)
T1 sequence (looked up): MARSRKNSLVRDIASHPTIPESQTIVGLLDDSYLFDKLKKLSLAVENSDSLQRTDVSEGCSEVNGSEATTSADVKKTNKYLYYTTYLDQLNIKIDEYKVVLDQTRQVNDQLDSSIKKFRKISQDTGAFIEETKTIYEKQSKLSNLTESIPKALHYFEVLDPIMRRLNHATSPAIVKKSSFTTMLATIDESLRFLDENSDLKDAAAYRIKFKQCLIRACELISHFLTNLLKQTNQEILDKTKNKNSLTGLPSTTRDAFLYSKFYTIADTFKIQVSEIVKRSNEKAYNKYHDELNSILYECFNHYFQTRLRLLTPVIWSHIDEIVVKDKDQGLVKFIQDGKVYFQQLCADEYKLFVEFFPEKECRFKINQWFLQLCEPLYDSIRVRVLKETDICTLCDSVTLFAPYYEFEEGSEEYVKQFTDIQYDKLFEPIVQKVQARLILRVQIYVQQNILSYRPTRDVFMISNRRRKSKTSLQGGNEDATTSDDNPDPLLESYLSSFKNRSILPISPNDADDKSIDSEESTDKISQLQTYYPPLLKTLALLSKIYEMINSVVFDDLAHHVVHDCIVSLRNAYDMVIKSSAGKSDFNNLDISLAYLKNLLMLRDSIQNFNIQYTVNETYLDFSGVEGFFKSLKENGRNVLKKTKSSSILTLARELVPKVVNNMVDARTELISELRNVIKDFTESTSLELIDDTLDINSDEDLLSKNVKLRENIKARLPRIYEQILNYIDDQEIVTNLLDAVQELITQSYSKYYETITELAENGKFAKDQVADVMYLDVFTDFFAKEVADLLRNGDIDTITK
Assay: pull-down

- percent recovered on the beads: ~3%
B1: Sec35p (natural protein, S. cerevisiae (endogenous in yeast), UniProt P53271 1-262, looked up)
chain: MDFLNDDELDLDLPVTAEISKELFATEIEKYRESETNGTDVDNFDVDRFLVQKNFHYLPLDSLIRDLSGLSQKMVQTLLEQIRSNYDDYLTFSNTYTDEENETLINLEKTQSDLQKFMTQLDHLIKDDISNTQEIIKDVLEYLKKLDEIYGSLRNHSQLTEALSLGKRLSKSLHEMCGIEPLEEEICSGLIEQLYKLITASRRILESCADSNSPYIHHLRNDYQDLLQEFQISLKILTEKCLENPSSLQNLSLTLVSIIKTA
